Results published in EP1230350B1, “SITE-DIRECTED MUTAGENESIS OF ESCHERICHIA COLI PHYTASE” (CORNELL RESEARCH FOUNDATION, INC., priority 1999, dated 2001).
Positions count from the first letter of the chain named. Numbers in names are those of the source. Marks after values point to notes of the source that are not given here.

What was measured:
Test in all cases: Enzyme kinetics of acid phosphatase/phytase (pNPP and sodium phytate as substrates)
[1] = target: T1, Escherichia coli acid phosphatase/phytase (appA) Mutant U (construct E2P2P3K2: C200N, D207N, S211N), SEQ. ID. No. 3, expressed in Pichia pastoris (Escherichia coli, UniProt P07102, C200N/D207N/S211N); format: biochemical
T1 construct: The coding region starts at the codon 20 and ends at the codon 432; alpha-factor secretion leader of vector pPICZαA (own knowledge of the vector); made in house; host or cells: Pichia pastoris X33
T1 sequence (P07102 20-432 C200N/D207N/S211N): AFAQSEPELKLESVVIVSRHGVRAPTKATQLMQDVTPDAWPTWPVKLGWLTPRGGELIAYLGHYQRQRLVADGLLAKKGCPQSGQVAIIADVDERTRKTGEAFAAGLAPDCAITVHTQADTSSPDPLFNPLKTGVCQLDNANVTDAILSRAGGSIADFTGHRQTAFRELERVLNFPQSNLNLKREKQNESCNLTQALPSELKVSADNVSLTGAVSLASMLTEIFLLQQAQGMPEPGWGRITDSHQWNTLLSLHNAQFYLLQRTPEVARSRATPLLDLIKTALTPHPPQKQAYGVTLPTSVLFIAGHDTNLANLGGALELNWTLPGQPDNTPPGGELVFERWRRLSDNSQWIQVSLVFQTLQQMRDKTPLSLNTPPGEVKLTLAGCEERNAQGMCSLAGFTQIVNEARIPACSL
Method: The expressed r-AppA and mutant enzymes in the medium supernatant were subjected to a two-step ammonium sulfate precipitation (25% and 75%) as previously described (Rodriguez, E. et al., Biochem. Biophys. Res. Commun. 257:117-23 (1999)). The suspension of the first round was centrifuged at 4°C, 25,000 x g for 20 min. The pellet of the second round was suspended in 10 ml and dialyzed overnight against 25 mM Tris-HCl, pH 7. After dialysis, the protein extract was loaded onto a DEAE (diethylaminoethyl)-Sepharose column (Sigma, St. Louis, MO) equilibrated with 25 mM Tris-HCl, pH 7. The bound protein was eluted with 1 M NaCl in 25 mM Tris-CH1, pH 7. […] Phytase activity was measured using sodium phytate as the substrate (Rodriguez, E. et al., Biochem. Biophys. Res. Commun. 257:117-23 (1999); Piddington, C.S. et al., Gene 133:55-62 (1993)). […] Free inorganic phosphorus was measured at 820 nm after 0.2 ml of the sample was mixed with 1.8 ml of H2O and 2 ml of a solution containing 0.6 M H2SO4, 2% ascorbic acid, and 0.5% ammonium molybdate, followed by incubation for 20 min at 50°C. […] The released p-nitrophenol was measured at 405 nm after 0.1 ml of the sample was mixed with 0.9 ml of 1 M NaOH and incubated for 10 min. […] After the samples were cooled on ice for 30 min, their remaining phytase activies were measured as described above. […]

[2] = substrate: O=P(O)(O)OC1C(OP(=O)(O)O)C(OP(=O)(O)O)C(OP(=O)(O)O)C(OP(=O)(O)O)C1OP(=O)(O)O; format: biochemical, Escherichia coli; conditions: 0.25 M glycine-HCl, pH 2.5, 37°C, Lineweaver-Burk plot
Method: (§1) The expressed r-AppA and mutant enzymes in the medium supernatant were subjected to a two-step ammonium sulfate precipitation (25% and 75%) as previously described (Rodriguez, E. et al., Biochem. Biophys. Res. Commun. 257:117-23 (1999)). The suspension of the first round was centrifuged at 4°C, 25,000 x g for 20 min. The pellet of the second round was suspended in 10 ml and dialyzed overnight against 25 mM Tris-HCl, pH 7. After dialysis, the protein extract was loaded onto a DEAE (diethylaminoethyl)-Sepharose column (Sigma, St. Louis, MO) equilibrated with 25 mM Tris-HCl, pH 7. The bound protein was eluted with 1 M NaCl in 25 mM Tris-CH1, pH 7. […] Phytase activity was measured using sodium phytate as the substrate (Rodriguez, E. et al., Biochem. Biophys. Res. Commun. 257:117-23 (1999); Piddington, C.S. et al., Gene 133:55-62 (1993)). The enzyme was diluted in 0.25 M glycine-HCl, pH 2.5, and an equal volume of substrate solution containing 11 mM sodium phytate (Sigma) was added. After incubation of the sample for 15 min at 37°C, the reaction was stopped by addition of an equal volume of 15% trichloroacetic acid. Free inorganic phosphorus was measured at 820 nm after 0.2 ml of the sample was mixed with 1.8 ml of H2O and 2 ml of a solution containing 0.6 M H2SO4, 2% ascorbic acid, and 0.5% ammonium molybdate, followed by incubation for 20 min at 50°C. One phytase unit was defined as the amount of activity that releases 1 µmol of inorganic phosphorus from sodium phytate per minute at 37°C. The final concentrations of sodium phytate used for the enzyme kinetics were: 0.1, 0.25, 0.5, 0.75, 1, 2.5, 10, and 25 mM. Acid phosphatase activity was assayed using pNPP (Sigma) at a final concentration of 25 mM (Smith, R. et al., Protein Engineerine 5:35-41 (1992)). To 50 µl of enzyme (40 nmol), 850 µl of 250 mM glycine-HCl, pH 2.5, were added. After 5 min of incubation at 37°C, 100 µl of pNPP was added. The released p-nitrophenol was measured at 405 nm after 0.1 ml of the sample was mixed with 0.9 ml of 1 M NaOH and incubated for 10 min. The final concentrations ofpNPP used for the enzyme kinetics were: 0.1, 0.2, 0.75, 1, 2.5, 10, and 25 mM. One unit of acid phosphatase/phytase activity was defined as the amount of enzyme catalyzing the formation of 1 µmol of p-nitrophenol per minute. Before the thermostability assay, the enzyme (2 mg/ml) was diluted 1:400 in 0.2 M glycine-HCl, pH 2.5. The diluted samples were incubated for 15 min at 25, 55, 80, and 90°C. After the samples were cooled on ice for 30 min, their remaining phytase activies were measured as described above. Deglycosylation of purified enzymes was done by incubating 100 µg of total protein with 0.5 IU endoglycosidase Hf (Endo Hf) for 4 h at 37°C according to the manufacturer's instructions (New England Biolabs, Beverly, MA). Sodium dodecyl sulfate-polyacrylamide gel electrophoresis (SDS-PAGE), 15% (w/v) gel was performed as previously described (Laenunli, U.K., Nature 227:680-85 (1970)). Protein concentrations were determined using the Lowry method (Lowry, O.H. et al., J. Biol. Chem. 193:265-75 (1951)).
(§2) The Km value for pNPP (p-nitrophenyl phosphate) was reduced by one-half and the one for sodium phytate by 70% with Mutant U, versus r-AppA (P < 0.05) (Table 4).

[3] = substrate: O=[N+]([O-])c1ccc(OP(=O)(O)O)cc1; format: biochemical, Escherichia coli; conditions: 0.25 M glycine-HCl, pH 2.5, 37°C, Lineweaver-Burk plot
Method: as §1, §2

O=P(O)(O)O[C@H]1[C@H](OP(=O)(O)O)[C@@H](OP(=O)(O)O)[C@H](OP(=O)(O)O)[C@@H](OP(=O)(O)O)[C@H]1OP(=O)(O)O [Na-Phytate, sodium phytate]
increase in apparent catalytic efficiency kcat/Km for sodium phytate than that of r-AppA ([1]; Mutant U versus r-AppA): 5.2 fold | Km value for sodium phytate reduced, versus r-AppA ([1]; Mutant U versus r-AppA (P < 0.05)): 70%

B1: Escherichia coli acid phosphatase/phytase (appA) Mutant Y (construct E2A1P2P3K2: A131N, V134N, C200N, D207N, S211N), expressed in Pichia pastoris (Escherichia … (protein)
chain: T1 sequence (P07102 20-432 C200N/D207N/S211N) with A112N, V115N
notes: The coding region starts at the codon 20 and ends at the codon 432; alpha-factor secretion leader of vector pPICZαA (own knowledge of the vector); made in house; host or cells: Pichia pastoris X33
Km ([2]; other: Mutant Y): 2030 ± 190 µM | kcat ([2]; other: Mutant Y): 3431 ± 41^* min^-1 | kcat/Km ([2]; other: Mutant Y): (1.69 ± 0.21) x 10^6* min^-1 M^-1 | Km ([3]; other: Mutant Y): 3180 ± 390 µM | kcat ([3]; other: Mutant Y): 787 ± 6.7 min⁻¹ | kcat/Km ([3]; other: Mutant Y): (2.5 ± 0.17) x 10^5 min^-1 M^-1

B2: Escherichia coli acid phosphatase/phytase (appA), wild type r-AppA, SEQ. ID. No. 1, expressed in Pichia pastoris (Escherichia coli K-12) (protein)
chain: T1 sequence (P07102 20-432 C200N/D207N/S211N) with N181C, N188D, N192S
notes: as for B1
Km ([2]; other: r-AppA): 1950 ± 250 µM | kcat ([2]; other: r-AppA): 2148 ± 33 min⁻¹ | kcat/Km ([2]; other: r-AppA): (1.11 ± 0.13) x 10^6 min^-1 M^-1 | Km ([3]; other: r-AppA): 3660 ± 440 µM | kcat ([3]; other: r-AppA): 752 ± 7.9 min⁻¹ | kcat/Km ([3]; other: r-AppA): (2.0 ± 0.18) x 10^5 min^-1 M^-1

B3: Escherichia coli acid phosphatase/phytase (appA) Mutant R (construct E2A1P3K2: A131N, V134N, D207N, S211N), expressed in Pichia pastoris (Escherichia coli … (protein)
chain: T1 sequence (P07102 20-432 C200N/D207N/S211N) with A112N, V115N, N181C
notes: as for B1
Km ([2]; other: Mutant R): 3070 ± 260 µM | kcat ([2]; other: Mutant R): 1657 ± 23^* min^-1 | kcat/Km ([2]; other: Mutant R): (0.54 ± 0.09) x 10^6* min^-1 M^-1 | Km ([3]; other: Mutant R): 7870 ± 840 µM | kcat ([3]; other: Mutant R): 390 ± 5.9^* min^-1 | kcat/Km ([3]; other: Mutant R): (0.5 ± 0.07) x 10^5* min^-1 M^-1

B4: Escherichia coli acid phosphatase/phytase (appA) Mutant U (construct E2P2P3K2: C200N, D207N, S211N), SEQ. ID. No. 3, expressed in Pichia pastoris (Escherichia … (protein)
chain: T1 sequence (P07102 20-432 C200N/D207N/S211N)
notes: as for B1
Km ([2]; other: Mutant U): 580 ± 80 µM | kcat ([2]; other: Mutant U): 4003 ± 56^* min^-1 | kcat/Km ([2]; other: Mutant U): (6.90 ± 0.70) x 10^6* min^-1 M^-1 | Km ([3]; other: Mutant U): 1860 ± 35000 µM | kcat ([3]; other: Mutant U): 1073 ± 13^* min^-1 | kcat/Km ([3]; other: Mutant U): (5.8 ± 0.37) x 10^5* min^-1 M^-1
